{
  "source": "paper PMC8679000",
  "about": "“Biochemical Characterizations of Human TMPK Mutations Identified in Patients with Severe Microcephaly: Single Amino Acid Substitutions Impair Dimerization and Abolish Their Catalytic Activity” (ACS Omega, 2021)",
  "biological_target": "the molecule itself",
  "experiment": "SEC; Superdex G200; 10 mM Tris/HCl pH 7.6, 100 mM NaCl, 5 mM MgCl2, 5 mM DTT; 200 ug protein injected, 0.4 mL/min; 0.4 mL fractions analysed by TMPK activity and Western blot; size markers BSA, ovalbumin, cytochrome C",
  "data": [
    {"protein": "wild-type human deoxythymidylate kinase (TMPK) (enzyme, UniProt P23919 1-212, looked up, The pET-14b vector with N-terminal 6xHis tag is stated for the mutants only; the WT was 'run in parallel'; also called WT TMPK; WT; not shown: His6 (inferred from the mutants' construct)) MAARRGALIVLEGVDRAGKSTQSRKLVEALCAAGHRAELLRFPERSTEIGKLLSSYLQKKSDVEDHSVHLLFSANRWEQVPLIKEKLSQGVTLVVDRYAFSGVAFTGAKENFSLDWCKQPDVGLPKPDLVLFLQLQLADAAKRGAFGHERYENGAFQERALRCFHQLMKDTTLNWKMVDASKSIEAVHEDIRVLSEDAIRTATEKPLGELWK", "values": [
      {"measurement": "stoichiometry N", "value": 2}
    ]}
  ]
}
